Measurements as given in the Human Domainome abundance scans (Beltran et al. 2025).
± gives the uncertainty stated by the source.

B1: Double-stranded RNA-specific adenosine deaminase, residues 296 to 358; numbered along this chain, P55265 (parent)
chain: MAEIKEKICDYLFNVSDSSALNLAKNIGLTKARDINAVLIDMERQGDVYRQGTTPPIWHLTDK

Variants of: B1
Assay: abundance fitness (aPCA) (normalised: wild type 0, dead -1); higher = more abundant; growth selection in yeast, the domain comes from the species named
Conditions: Homo sapiens

Point of comparison: MAEIKEKICDYLFNVSDSSTLNLAKNIGLTKARDINAVLIDMERQGDVYRQGTTPPIWHLTDK [A20T], abundance fitness -0.295 ± 0.065. Against it:
- MAEIKEKICDYLFNVSDSSALNLAKNIGLTKIRDINAVLIDMERQGDVYRQGTTPPIWHLTDK [A32I] — higher, 0.076 ± 0.15
- MAEIKEKICDYLFNVSDSSALNLAKNIGLTKNRDINAVLIDMERQGDVYRQGTTPPIWHLTDK [A32N] — within error, -0.232 ± 0.095
- MAEIKEKICDYLFNVSDSSALNLAKNIGLTKLRDINAVLIDMERQGDVYRQGTTPPIWHLTDK [A32L] — higher, 0.25 ± 0.054
- MAEIKEKICDYLFNVSDSSALNLAKNIGLTKARDINAVLIDMERQGDVYDQGTTPPIWHLTDK [R50D] — lower, -0.761 ± 0.14
- MAEIKEKICDYLFNVSDSSALNLAKNIGLTKARDINAVLIDMERQGDVYWQGTTPPIWHLTDK [R50W] — lower, -0.722 ± 0.13
- MAEIKEKICDYLFNVSDSSALNLAKNIGLTKARTINAVLIDMERQGDVYRQGTTPPIWHLTDK [D34T] — lower, -0.724 ± 0.11
- MAEIKEKICDYLFNVSDSSALNLAKNIGLTKARDINAVLIDMERQGDVYRQSTTPPIWHLTDK [G52S] — within error, -0.387 ± 0.063
- MAEIKEKICDYLFNVSDSSALNLAKNIGLTKARDINAVLIDMERQGDVYRQVTTPPIWHLTDK [G52V] — lower, -0.638 ± 0.062
- MAEIKEKICDYLFNVSDSSALNLAKNIGLTKARDINAVLIDMERQGDVYRQWTTPPIWHLTDK [G52W] — lower, -0.518 ± 0.086
- MAEIKEKICDYLFNVSDSSALNLAKNIGLTKARDINAVLIDMERQGDVWRQGTTPPIWHLTDK [Y49W] — higher, -0.044 ± 0.071
- MAEIKEKICDYLFNVSDSSALNLAKNIGLTKARDINAVLIDMERQGDVSRQGTTPPIWHLTDK [Y49S] — higher, 0.111 ± 0.046
- MAEIKEKICDYLFNVSDSSALNLAKNIGGTKARDINAVLIDMERQGDVYRQGTTPPIWHLTDK [L29G] — higher, 0.006 ± 0.058
- MAEIKEKICDYLFNVSDSSALNLAKNIGTTKARDINAVLIDMERQGDVYRQGTTPPIWHLTDK [L29T] — higher, -0.167 ± 0.062
- MAEIKEKICDYLFNVSDSSALNLAKNIGLTKARDINAVLIDMERQGDVYRQGTTIPIWHLTDK [P55I] — lower, -0.547 ± 0.057
- MAEIKEKICDYLFNVSDSSALNLAKNIGLTKARDINAVLIDMERQGDVYRQGTTMPIWHLTDK [P55M] — lower, -0.632 ± 0.12
- MAEIKEKICDYLFNVSDSSALNLAKNIGLTKARDINAVLIDMERQGDWYRQGTTPPIWHLTDK [V48W] — lower, -0.692 ± 0.085
- MAEIKEKICDYLFNVSDSSALNLAKNIGLTKARDINAVLIDMERQGDSYRQGTTPPIWHLTDK [V48S] — lower, -0.585 ± 0.073
- MAEIKEKICDYLFNVSDSSALNLAKNIGLTKARDINAVLIDMERQGDIYRQGTTPPIWHLTDK [V48I] — higher, -0.139 ± 0.065
- MAEIKEKICDYLFNVSDSSALNLAKNIGLTKARDINAVLIDMERQGDEYRQGTTPPIWHLTDK [V48E] — within error, -0.23 ± 0.089
- MAEIKEKICDYLFNVSDSSALNLAKNIGLTKARDINAVLIDMERQGDTYRQGTTPPIWHLTDK [V48T] — lower, -0.563 ± 0.069
- MAEIKEKDCDYLFNVSDSSALNLAKNIGLTKARDINAVLIDMERQGDVYRQGTTPPIWHLTDK [I8D] — higher, 0.302 ± 0.3
- MAEIKEKICDYLFNVSDSSALNLAKNIGLTKARDINAVLIDMERQQDVYRQGTTPPIWHLTDK [G46Q] — lower, -0.652 ± 0.12
- MAEIKEKICDYLFNVSDSSALNLAKNIGLTKARDINAVLIDMRRQGDVYRQGTTPPIWHLTDK [E43R] — lower, -0.927 ± 0.067
- MAEIKEKICDYLFNVSDSSALNLAKNIGLTKARDINAVLIDMGRQGDVYRQGTTPPIWHLTDK [E43G] — lower, -0.508 ± 0.093
- MAEIKEKICDYLFNVSDSSALNLAKNIGLTKARDINLVLIDMERQGDVYRQGTTPPIWHLTDK [A37L] — within error, -0.392 ± 0.061
- MAEIKEKICDYLFNVSDSSALNLAKNIGLTKARDINYVLIDMERQGDVYRQGTTPPIWHLTDK [A37Y] — within error, -0.457 ± 0.12
- MQEIKEKICDYLFNVSDSSALNLAKNIGLTKARDINAVLIDMERQGDVYRQGTTPPIWHLTDK [A2Q] — higher, 0.023 ± 0.092
- MREIKEKICDYLFNVSDSSALNLAKNIGLTKARDINAVLIDMERQGDVYRQGTTPPIWHLTDK [A2R] — higher, 0.004 ± 0.048
- MAEIKEGICDYLFNVSDSSALNLAKNIGLTKARDINAVLIDMERQGDVYRQGTTPPIWHLTDK [K7G] — lower, -0.775 ± 0.086
- MAEIKEKICDYLFNVSDSSALNLAKNIGLTKARDINAVLIDMERQGDVYRQGTTPPAWHLTDK [I57A] — within error, -0.316 ± 0.051
- MAEIKEKICDYLFNVSDSSALNLAKNIGLLKARDINAVLIDMERQGDVYRQGTTPPIWHLTDK [T30L] — within error, -0.312 ± 0.047
- MAEIKEKICDYLFNVSDSSALNLAKNIGLMKARDINAVLIDMERQGDVYRQGTTPPIWHLTDK [T30M] — within error, -0.204 ± 0.072
- MAEIKEKICDYLFNWSDSSALNLAKNIGLTKARDINAVLIDMERQGDVYRQGTTPPIWHLTDK [V15W] — within error, -0.213 ± 0.063
- MAEIKEKICDYLFNVSDSSALNLAKNIGLTKARDIPAVLIDMERQGDVYRQGTTPPIWHLTDK [N36P] — lower, -0.49 ± 0.072
- MAEIKEKICDYLFNVSDSSALNLAKNIGLTKARDIKAVLIDMERQGDVYRQGTTPPIWHLTDK [N36K] — higher, -0.098 ± 0.08
- MAEIKEKICDYLFNVSDSSALYLAKNIGLTKARDINAVLIDMERQGDVYRQGTTPPIWHLTDK [N22Y] — within error, -0.386 ± 0.14
- MAEIKEKICDYLFNVSDSSALVLAKNIGLTKARDINAVLIDMERQGDVYRQGTTPPIWHLTDK [N22V] — within error, -0.18 ± 0.078
- MAEIKEKICDYLFMVSDSSALNLAKNIGLTKARDINAVLIDMERQGDVYRQGTTPPIWHLTDK [N14M] — within error, -0.189 ± 0.068
- MAEIKEKICDYLFNVSDSSALNLAKNIGLTKARDINAVLIDMERQGDVYRQGTTPPIQHLTDK [W58Q] — higher, -0.152 ± 0.071
- MAEIKEKICDYLFNVSDSSALNLAKNIGLTKARDINAVLIDMERQGDVYRQGTTPPIHHLTDK [W58H] — within error, -0.278 ± 0.093
- MAEIKEKICDYLFNVSDSSALNLAKNIGLTKARDINAVLIDMERQGDVYRQGTTPPITHLTDK [W58T] — within error, -0.251 ± 0.043
- MAEIKEKICDYLFNVSDSSALNLAKNSGLTKARDINAVLIDMERQGDVYRQGTTPPIWHLTDK [I27S] — lower, -0.435 ± 0.048
